# Reference: US20240228572A1 (I2O THERAPEUTICS, published 2024)
# Read-outs that look alike come from different tables or passages of the source. *1 amine or outer side, *2 acyl side, *3 side chain or, on linkers, in order; H or OH if unused. Bridges are numbered along the chain shown (N, C = ends). Primed or numbered codes have the meaning given here. Where no end group is shown, it is not given here. Side-chain parts run from the residue outwards. [ ]: non-standard residue; d: D form. The star is where a group is joined. dpeg″ = spacer —[CO(CH2)O(CH2)2O(CH2)NH]—, O=C(COCCOCN[*:1])[*:2]; dpeg = —[CO(CH2)O(CH2)2O(CH2)NH]— spacer, O=C(COCCOCN[*:1])[*:2]; C20 diacid = O=C(O)CCCCCCCCCCCCCCCCCCC(=O)*; γGlu = O=C(O)[C@H](CCC(=O)[*:2])N[*:1]; Aib = CC(C)(N)C(=O)O
# B1: Compound A39 (peptide)
# peptide: YSHGTFTSDYSKYLD[Aib]KYAKK([γGlu-γGlu-dpeg″-C20 diacid])FVKWLEEEPSSGAPPPS-OH
# modifications: lactam 24-28; N-terminus assumed
# SMILES: CC(C)C[C@@H]1NC(=O)[C@H](Cc2c[nH]c3ccccc23)NC(=O)[C@@H](NC(=O)[C@@H](NC(=O)[C@H](Cc2ccccc2)NC(=O)[C@H](CCCCNC(=O)CC[C@H](NC(=O)CC[C@H](NC(=O)COCCOCNC(=O)CCCCCCCCCCCCCCCCCCC(=O)O)C(=O)O)C(=O)O)NC(=O)[C@H](CCCCN)NC(=O)[C@H](C)NC(=O)[C@H](Cc2ccc(O)cc2)NC(=O)[C@H](CCCCN)NC(=O)C(C)(C)NC(=O)[C@H](CC(=O)O)NC(=O)[C@H](CC(C)C)NC(=O)[C@H](Cc2ccc(O)cc2)NC(=O)[C@H](CCCCN)NC(=O)[C@H](CO)NC(=O)[C@H](Cc2ccc(O)cc2)NC(=O)[C@H](CC(=O)O)NC(=O)[C@H](CO)NC(=O)[C@@H](NC(=O)[C@H](Cc2ccccc2)NC(=O)[C@@H](NC(=O)CNC(=O)[C@H](Cc2c[nH]cn2)NC(=O)[C@H](CO)NC(=O)[C@@H](N)Cc2ccc(O)cc2)[C@@H](C)O)[C@@H](C)O)C(C)C)CCCCNC(=O)CC[C@@H](C(=O)N[C@@H](CCC(=O)O)C(=O)N2CCC[C@H]2C(=O)N[C@@H](CO)C(=O)N[C@@H](CO)C(=O)NCC(=O)N[C@@H](C)C(=O)N2CCC[C@H]2C(=O)N2CCC[C@H]2C(=O)N2CCC[C@H]2C(=O)N[C@@H](CO)C(=O)O)NC(=O)[C@H](CCC(=O)O)NC1=O
# B2: Compound A7 (peptide)
# peptide: YSHGTFTSDYSKYLDK([γGlu-γGlu-dpeg-C20 diacid])KYAQEF[Aib]QWLEDEPSSGAPPPS-OH
# B3: Compound A6 (peptide)
# peptide: YSHGTFTSDYSKYLD[Aib]KYAQK([γGlu-γGlu-dpeg-C20 diacid])FV[Aib]WLEDEPSSGAPPPS-OH
# Key:
# Experiment in all cases: cell-based or functional assay
# [1] = target: T1, human GLP-1 receptor (GLP-1R) (human, UniProt P43220 24-463)
# T1 sequence (P43220 24-463): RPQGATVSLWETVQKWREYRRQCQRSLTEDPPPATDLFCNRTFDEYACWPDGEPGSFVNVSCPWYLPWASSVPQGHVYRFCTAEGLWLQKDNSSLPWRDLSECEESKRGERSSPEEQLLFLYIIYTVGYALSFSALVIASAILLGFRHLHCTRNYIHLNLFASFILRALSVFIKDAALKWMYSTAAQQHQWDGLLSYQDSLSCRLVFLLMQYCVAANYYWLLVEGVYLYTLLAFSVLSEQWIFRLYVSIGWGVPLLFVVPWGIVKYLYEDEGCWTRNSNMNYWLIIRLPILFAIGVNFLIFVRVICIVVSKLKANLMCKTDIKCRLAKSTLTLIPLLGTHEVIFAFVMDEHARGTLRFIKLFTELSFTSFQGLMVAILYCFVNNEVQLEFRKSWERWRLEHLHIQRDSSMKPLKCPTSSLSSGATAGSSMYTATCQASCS
# [2] = target: T2, human Glucagon receptor (GCGR) (human, UniProt P47871 26-477)
# hGIPR = target: T3, hGIPR (human, UniProt P48546 22-466)
# T3 sequence (looked up): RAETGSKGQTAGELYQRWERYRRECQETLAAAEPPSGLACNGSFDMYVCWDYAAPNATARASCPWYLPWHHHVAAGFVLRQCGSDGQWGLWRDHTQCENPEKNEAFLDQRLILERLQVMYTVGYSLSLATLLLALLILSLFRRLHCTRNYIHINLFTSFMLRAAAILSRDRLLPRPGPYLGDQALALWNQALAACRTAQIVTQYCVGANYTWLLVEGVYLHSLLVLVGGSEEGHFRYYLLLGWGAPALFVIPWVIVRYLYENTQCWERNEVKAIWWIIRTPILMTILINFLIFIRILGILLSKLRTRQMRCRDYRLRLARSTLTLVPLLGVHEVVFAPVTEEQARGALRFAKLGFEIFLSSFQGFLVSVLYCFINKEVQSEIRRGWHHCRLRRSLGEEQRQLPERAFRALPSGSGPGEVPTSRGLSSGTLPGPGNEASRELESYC
# [3] = target: rat Glucagon receptor (GCGR) (rat, UniProt P30082 27-485)
# rat Glucagon receptor (GCGR), sequence (P30082 27-485): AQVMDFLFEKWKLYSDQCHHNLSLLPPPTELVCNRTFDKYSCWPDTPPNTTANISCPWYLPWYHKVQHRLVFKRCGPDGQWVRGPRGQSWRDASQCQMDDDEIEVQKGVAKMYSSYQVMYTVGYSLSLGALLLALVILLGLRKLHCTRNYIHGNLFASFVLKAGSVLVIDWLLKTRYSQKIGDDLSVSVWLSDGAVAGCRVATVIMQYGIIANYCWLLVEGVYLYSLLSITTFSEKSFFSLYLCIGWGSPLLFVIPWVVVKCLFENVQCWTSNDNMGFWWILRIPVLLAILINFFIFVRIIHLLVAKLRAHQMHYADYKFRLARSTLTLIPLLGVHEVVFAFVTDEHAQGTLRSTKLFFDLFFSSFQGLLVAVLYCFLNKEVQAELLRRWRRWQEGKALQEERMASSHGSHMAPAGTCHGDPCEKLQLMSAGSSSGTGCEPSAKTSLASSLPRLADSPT
# [4] = target: T1, human GLP-1 receptor (GLP-1R); remark: listed apart in the source
# [5] = target: T2, human Glucagon receptor (GCGR); remark: listed apart in the source
# [6] = target: cynomolgus monkey Glucagon receptor (GCGR) (cynomolgus monkey)
Binder,"pEC50, cAMP accumulation [1]","pEC50, cAMP accumulation [2]","pEC50, cAMP accumulation (hGIPR)","pEC50, cAMP accumulation [3]","pEC50, cAMP accumulation [4]","pEC50, cAMP accumulation [5]","pEC50, cAMP accumulation [6]"
B1,< 9 pEC50 (-log M),11.7 pEC50 (-log M),–,–,–,–,–
B2,< 9 pEC50 (-log M),10.7 pEC50 (-log M),–,–,–,–,–
B3,< 7 pEC50 (-log M),12.2 pEC50 (-log M),< 9 pEC50 (-log M),10.3 pEC50 (-log M),< 7 pEC50 (-log M),12.2 pEC50 (-log M),9.77 pEC50 (-log M)
